Two substances from PMC9942828 can be followed below.

Test [1] has as its target PA-tagged SORLA VPS10p-domain (1 to 753), T659C mutant (human) (UniProt Q92673). Put plainly: cross-linking.
In test [2] the target is SORLA dimer of SORLA-V1 and SORLA-V2 with reconstituted Venus (human) (UniProt Q92673). Nature of the test: co-IP.

Chain of UniProt Q92673 (Q92673 82-2214, chain 1 of 2): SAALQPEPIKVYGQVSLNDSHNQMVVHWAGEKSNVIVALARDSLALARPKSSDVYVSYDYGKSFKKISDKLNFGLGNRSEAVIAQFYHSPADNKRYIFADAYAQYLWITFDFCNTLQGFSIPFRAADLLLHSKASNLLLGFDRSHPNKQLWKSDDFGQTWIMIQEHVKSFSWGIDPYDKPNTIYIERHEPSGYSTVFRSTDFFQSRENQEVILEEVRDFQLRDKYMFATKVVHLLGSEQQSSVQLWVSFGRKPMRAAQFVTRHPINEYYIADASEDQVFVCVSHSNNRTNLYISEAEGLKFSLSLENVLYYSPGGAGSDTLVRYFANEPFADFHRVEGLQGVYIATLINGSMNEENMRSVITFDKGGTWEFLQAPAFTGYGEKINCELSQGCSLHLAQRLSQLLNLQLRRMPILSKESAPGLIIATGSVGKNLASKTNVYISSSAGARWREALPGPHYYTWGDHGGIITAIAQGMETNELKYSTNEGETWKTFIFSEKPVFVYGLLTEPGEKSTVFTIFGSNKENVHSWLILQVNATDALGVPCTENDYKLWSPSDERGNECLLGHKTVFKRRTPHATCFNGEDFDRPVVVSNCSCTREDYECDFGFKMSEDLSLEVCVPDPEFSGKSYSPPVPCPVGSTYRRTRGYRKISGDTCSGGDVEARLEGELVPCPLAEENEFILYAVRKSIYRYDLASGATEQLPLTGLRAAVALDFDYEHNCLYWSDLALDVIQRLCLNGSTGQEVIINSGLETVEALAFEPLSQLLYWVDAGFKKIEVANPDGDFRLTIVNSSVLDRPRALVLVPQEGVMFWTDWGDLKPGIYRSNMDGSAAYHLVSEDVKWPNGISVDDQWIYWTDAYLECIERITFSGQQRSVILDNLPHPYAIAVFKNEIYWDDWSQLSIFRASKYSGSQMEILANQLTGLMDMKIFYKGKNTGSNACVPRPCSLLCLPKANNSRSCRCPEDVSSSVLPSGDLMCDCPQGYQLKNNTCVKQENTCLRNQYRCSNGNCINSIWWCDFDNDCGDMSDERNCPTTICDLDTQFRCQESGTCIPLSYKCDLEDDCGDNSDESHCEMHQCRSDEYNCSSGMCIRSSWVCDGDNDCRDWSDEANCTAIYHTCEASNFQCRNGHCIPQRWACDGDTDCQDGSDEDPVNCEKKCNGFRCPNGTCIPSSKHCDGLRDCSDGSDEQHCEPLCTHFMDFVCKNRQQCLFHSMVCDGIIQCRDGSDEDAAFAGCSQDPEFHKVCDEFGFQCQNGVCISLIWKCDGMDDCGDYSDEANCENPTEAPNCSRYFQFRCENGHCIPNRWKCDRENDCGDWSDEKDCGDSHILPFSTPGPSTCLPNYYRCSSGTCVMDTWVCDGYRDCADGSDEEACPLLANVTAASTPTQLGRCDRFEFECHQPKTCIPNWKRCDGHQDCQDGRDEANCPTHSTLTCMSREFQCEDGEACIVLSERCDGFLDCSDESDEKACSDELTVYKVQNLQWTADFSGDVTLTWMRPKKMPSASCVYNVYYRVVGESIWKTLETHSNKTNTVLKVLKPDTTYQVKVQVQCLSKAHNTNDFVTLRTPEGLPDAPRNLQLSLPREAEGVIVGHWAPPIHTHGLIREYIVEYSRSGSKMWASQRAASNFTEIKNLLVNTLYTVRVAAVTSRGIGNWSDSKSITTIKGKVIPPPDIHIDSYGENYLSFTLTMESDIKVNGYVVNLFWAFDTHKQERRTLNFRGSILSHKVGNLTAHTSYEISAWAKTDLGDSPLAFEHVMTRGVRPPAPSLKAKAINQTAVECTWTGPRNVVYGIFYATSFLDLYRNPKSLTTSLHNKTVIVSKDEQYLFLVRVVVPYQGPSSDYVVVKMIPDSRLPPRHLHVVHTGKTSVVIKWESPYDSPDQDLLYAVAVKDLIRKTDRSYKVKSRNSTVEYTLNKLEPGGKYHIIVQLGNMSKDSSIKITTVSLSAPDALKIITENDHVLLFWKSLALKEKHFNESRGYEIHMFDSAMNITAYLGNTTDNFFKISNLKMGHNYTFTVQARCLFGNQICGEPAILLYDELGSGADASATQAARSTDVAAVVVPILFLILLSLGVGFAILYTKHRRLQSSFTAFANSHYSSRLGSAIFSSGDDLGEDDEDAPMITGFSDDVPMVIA
Chain of UniProt Q92673 (Q92673 82-2214, chain 2 of 2): as the sequence (Q92673 82-2214, chain 1 of 2) above

“PA-tagged SORLA VPS10p-domain (1 to 753), T659C mutant (from UniProt Q92673 29-753) (domain or fragment)”: in test [1], the stoichiometry N (commonly a count of units in the complex or per binding partner) stood at 2. Take “VPS26b subunit of retromer (from UniProt Q4G0F5 1-336) (natural protein)”: the co-IP product relative to total input in test [2] stood at 6%.
